According to US20240181007A1, “COMPOSITIONS AND METHODS FOR TREATING PULMONARY HYPERTENSION” (Acceleron Pharma Inc., priority 2021, published 2024):

Tests used:
GDF11 [1] = target: T1, GDF11 (UniProt O95390 299-407); assay: cell-based or functional assay
T1 construct: also called Growth and differentiation factor-11; BMP11
T1 sequence (looked up): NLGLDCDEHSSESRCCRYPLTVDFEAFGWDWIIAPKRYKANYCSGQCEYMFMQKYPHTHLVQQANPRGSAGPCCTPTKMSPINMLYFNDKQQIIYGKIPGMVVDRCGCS

BMP9 [2] = target: T2, BMP9 (UniProt Q9UK05 320-429); assay: cell-based or functional assay
T2 sequence (looked up): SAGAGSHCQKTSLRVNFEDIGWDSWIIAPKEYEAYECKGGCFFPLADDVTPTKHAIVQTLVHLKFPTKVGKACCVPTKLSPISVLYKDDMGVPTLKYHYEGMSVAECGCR

Activin B = target: T3, Activin B (Homo sapiens, UniProt P09529); assay: Biacore-based binding assay (surface plasmon resonance), activin B; conditions: SPR 37° C.; compared to ActRIIB-G1Fc / ActRIIB-Fc homodimer
T3 sequence (P09529 293-407): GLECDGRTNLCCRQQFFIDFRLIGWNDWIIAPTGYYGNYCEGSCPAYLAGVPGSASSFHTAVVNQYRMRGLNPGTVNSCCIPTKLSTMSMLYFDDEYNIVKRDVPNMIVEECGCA
Procedure: (§1) To determine ligand binding profiles of variant ActRIIB-Fc homodimers, a Biacore™-based binding assay was used to compare ligand binding kinetics of certain variant ActRIIB-Fc polypeptides. ActRIIB-Fc polypeptides to be tested were independently captured onto the system using an anti-Fc antibody. Ligands were then injected and allowed to flow over the captured receptor protein. ActRIIB-G1Fc was used as the control polypeptide.
(§2) A Biacore™-based binding assay was used to compare the ligand binding kinetics of an ActRIIB-Fc:ActRIIB(L79E)-Fc heterodimer with those of unmodified ActRIIB-Fc homodimer. Fusion proteins were captured onto the system using an anti-Fc antibody. Ligands were then injected and allowed to flow over the captured receptor protein at 37° C. Results are summarized in the table below, in which ligand off-rates (kd) most indicative of effective ligand traps are denoted in bold.

BMP9 [3] = target: T4, BMP9 (Homo sapiens, UniProt Q9UK05); assay: Biacore-based binding assay (surface plasmon resonance), BMP9; conditions: SPR 37° C.; for binding to BMP9 compared to unmodified ActRIIB-Fc (in words): compared to ActRIIB-G1Fc / ActRIIB-Fc homodimer; for reduction in affinity for BMP9 compared with reduction in affinity for GDF11 or activin A: FIG. 9, compared to Fc fusion with unmodified ActRIIB extracellular domain
T4 sequence (Q9UK05 320-429): T2 sequence (looked up)
Procedure: as §1
(§3) To determine ligand binding profiles of variant ActRIIB-Fc homodimers, a Biacore™-based binding assay was used to compare ligand binding kinetics of certain variant ActRIIB-Fc polypeptides. ActRIIB-Fc polypeptides to be tested were independently captured onto the system using an anti-Fc antibody. Ligands were then injected and allowed to flow over the captured receptor protein.
as §2

GDF11 [4] = target: T5, GDF11 (Homo sapiens, UniProt O95390); assay: Biacore-based binding assay (surface plasmon resonance), GDF11; conditions: SPR 37° C.; compared to ActRIIB-G1Fc / ActRIIB-Fc homodimer
T5 sequence (O95390 299-407): T1 sequence (looked up)
Procedure: as §1, §3, §2

GDF8 = target: T6, GDF8 (Homo sapiens, UniProt O14793); assay: Biacore-based binding assay (surface plasmon resonance), GDF8; conditions: SPR 37° C.; compared to ActRIIB-G1Fc / ActRIIB-Fc homodimer
T6 sequence (O14793 267-375): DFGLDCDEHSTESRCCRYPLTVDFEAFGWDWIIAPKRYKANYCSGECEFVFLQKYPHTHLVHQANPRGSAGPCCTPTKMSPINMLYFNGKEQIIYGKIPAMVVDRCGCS
Procedure: as §1, §2

GDF11 [5] = target: T5, GDF11; assay: A204 cell-based pGL3(CAGA)12 reporter gene assay, signaling by GDF11; conditions: A204 reporter gene assay
Description: (§4) To determine activity of variant ActRIIB-Fc polypeptides, an A204 cell-based assay was used to compare effects among variant ActRIIB-Fc polypeptides on signaling by activin A, activin B, GDF8, GDF11, BMP9, and BMP10, in comparison to ActRIIB-G1Fc. In brief, this assay uses a human A204 rhabdomyosarcoma cell line (ATCC®: HTB-82™) derived from muscle and the reporter vector pGL3(CAGA)12 (Dennler et al., 1998, EMBO 17: 3091-3100) as well as a Renilla reporter plasmid (pRLCMV) to control for transfection efficiency. The CAGA12 motif is present in TGF-β responsive genes (e.g., PAI-1 gene), so this vector is of general use for ligands that can signal through Smad2/3, including activin A. GDF11, and BMP9.
(§5) On day 1. A204 cells were transferred into one or more 48-well plates. On day 2, these cells were transfected with 10 μg pGL3(CAGA)12 or pGL3(CAGA)12(10 μg)+pRLCMV ([…]) and Fugene. On day 3, ligands diluted in medium containing 0.1% BSA were preincubated with ActRIIB-Fc polypeptides for 1 hr before addition to cells. Approximately six hour later, the cells were rinsed with PBS and lysed. Cell lysates were analyzed in a luciferase assay to determine the extent of Smad activation.
(§6) This assay was used to screen variant ActRIIB-Fc polypeptides for inhibitory effects on cell signaling by activin A, activin B. GDF8, GDF11. BMP9, and BMP10. Potencies of homodimeric Fc fusion polypeptides incorporating amino acid substitutions in the human ActRIIB extracellular domain were compared with that of an Fc fusion polypeptide comprising unmodified human ActRIIB extracellular domain, ActRIIB-G1Fc. For some variants tested, it was not possible to calculate an accurate IC50, but signs of inhibition in the slope of the curves were detectable. For these variants, an estimate was included of the order of magnitude of the relative IC50, i.e. >10 nM or >100 nM instead of a definite number. Such data points are indicated by a (*) in Table 3 below. For some variants tested, there was no detectable inhibition in the slope of the curves over the concentration range tested, which is indicated by “ND” in Table 4.
as §4, with “A,” for “A, activin B, GDF8,”, “GDF11,” for “GDF11, BMP9,”, “and BMP9.” for “and BMP10, in comparison to ActRIIB-G1Fc.”, “(Dennler el” for “(Dennler et”, “activin A,” for “activin A.”
(§7) On day 1, A-204 cells were transferred into one or more 48-well plates. On day 2, these cells were transfected with 10 μg pGL3(CAGA)12 or pGL3(CAGA)12(10 μg)+pRLCMV (1 μg) and Fugene. On day 3, ligands diluted in medium containing 0.1% BSA were preincubated with ActRIIB-Fc polypeptides for 1 hr before addition to cells. Approximately six hour later, the cells were rinsed with PBS and lysed. Cell lysates were analyzed in a luciferase assay to determine the extent of Smad activation.
(§8) This assay was used to screen variant ActRIIB-Fc polypeptides for inhibitory effects on cell signaling by activin A, GDF11, and BMP9. Potencies of homodimeric Fc fusion polypeptides incorporating amino acid substitutions in the human ActRIIB extracellular domain were compared with that of an Fc fusion polypeptide comprising unmodified human ActRIIB extracellular domain.

BMP9 [6] = target: T4, BMP9; assay: A204 cell-based pGL3(CAGA)12 reporter gene assay, signaling by BMP9; conditions: A204 reporter gene assay
Description: as §4, §5, §6
as §4, with “A,” for “A, activin B, GDF8,”, “GDF11,” for “GDF11, BMP9,”, “and BMP9.” for “and BMP10, in comparison to ActRIIB-G1Fc.”, “(Dennler el” for “(Dennler et”, “activin A,” for “activin A.”
as §7, §8

Activin A = target: T7, Activin A (Homo sapiens, UniProt P08476); assay: A204 cell-based pGL3(CAGA)12 reporter gene assay, signaling by activin A; conditions: A204 reporter gene assay
T7 sequence (P08476 311-426): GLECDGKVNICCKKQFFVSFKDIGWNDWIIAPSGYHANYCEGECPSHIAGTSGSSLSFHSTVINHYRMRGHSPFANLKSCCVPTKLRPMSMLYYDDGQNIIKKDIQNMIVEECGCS
Description: as §4, §5, §6
as §4, with “A,” for “A, activin B, GDF8,”, “GDF11,” for “GDF11, BMP9,”, “and BMP9.” for “and BMP10, in comparison to ActRIIB-G1Fc.”, “(Dennler el” for “(Dennler et”, “activin A,” for “activin A.”
as §7, §8

Substance	IC50 (ng/ml), A204 CAGA12 luciferase reporter assay (GDF11 [1]) [ng/mL]	IC50 (ng/ml), A204 CAGA12 luciferase reporter assay (BMP9 [2]) [ng/mL]	affinity for activin B compared to unmodified ActRIIB-Fc (in words) (Activin B)	binding to BMP9 compared to unmodified ActRIIB-Fc (in words) (BMP9 [3])	GDF11 binding compared to unmodified ActRIIB-Fc (in words) (GDF11 [4])	GDF8 binding compared to unmodified ActRIIB-Fc (in words) (GDF8)	inhibition of GDF11 compared to fusion polypeptide with unmodified ActRIIB extracellular domain (in words) (GDF11 [5])	inhibition of BMP9 compared to fusion polypeptide with unmodified ActRIIB extracellular domain (in words) (BMP9 [6])	selectivity of antagonism (activin A and GDF11 over BMP9) compared to unmodified ActRIIB-Fc (BMP9 [6])	inhibition of activin A compared to fusion polypeptide with unmodified ActRIIB extracellular domain (in words) (Activin A)	reduction in affinity for BMP9 compared with reduction in affinity for GDF11 or activin A (BMP9 [3])	other results
K74R (homodimeric ActRIIB-Fc construct) (Fc fusion)	45	165										
F82K-N83R: homodimeric ActRIIB-G1Fc fusion with F82K and N83R substitutions; mature SEQ ID NO: 332			relatively high affinity for activin B	decrease in binding to BMP9	significant decrease in GDF8 and GDF11 binding	significant decrease in GDF8 and GDF11 binding						
F82K: homodimeric ActRIIB-G1Fc fusion with F82K substitution; mature SEQ ID NO: 42							essentially undiminished inhibition of activin A and GDF11	less potent inhibition of BMP9	more selective antagonists of activin A and GDF11	essentially undiminished inhibition of activin A and GDF11	reduce ActRIIB binding affinity for BMP9 more than they reduce ActRIIB affinity for activin A or GDF11	reduction in affinity for BMP9 compared with reduction in affinity for GDF11 or activin A (BMP9 [3]; listed as ActRIIB(F82K)-Fc): greater reduction in their affinity for BMP9 than for GDF11
F82I: homodimeric ActRIIB-G1Fc fusion with F82I substitution; mature SEQ ID NO: 39							essentially undiminished inhibition of activin A and GDF11	less potent inhibition of BMP9	more selective antagonists of activin A and GDF11	essentially undiminished inhibition of activin A and GDF11	reduce ActRIIB binding affinity for BMP9 more than they reduce ActRIIB affinity for activin A or GDF11	reduction in affinity for BMP9 compared with reduction in affinity for GDF11 or activin A (BMP9 [3]; listed as ActRIIB(F82I)-Fc): greater reduction in their affinity for BMP9 than for GDF11
R40A (homodimeric ActRIIB-Fc construct) (Fc fusion)	591	1210										
K55E: homodimeric ActRIIB-G1Fc fusion with K55E substitution; mature SEQ ID NO: 36							essentially undiminished inhibition of activin A and GDF11	less potent inhibition of BMP9	more selective antagonists of activin A and GDF11	essentially undiminished inhibition of activin A and GDF11	reduce ActRIIB binding affinity for BMP9 more than they reduce ActRIIB affinity for activin A or GDF11	reduction in affinity for BMP9 compared with reduction in affinity for GDF11 or activin A (BMP9 [3]; listed as ActRIIB(K55E)-Fc): greater reduction in their affinity for BMP9 than for GDF11
F82T-N83R: homodimeric ActRIIB-G1Fc fusion with F82T and N83R substitutions; mature SEQ ID NO: 335			relatively high affinity for activin B	decrease in binding to BMP9	significant decrease in GDF8 and GDF11 binding	significant decrease in GDF8 and GDF11 binding						
F82W/N83A (homodimeric ActRIIB-Fc construct) (Fc fusion)	389	40000										
F82I-N83R: homodimeric ActRIIB-G1Fc fusion with F82I and N83R substitutions; mature SEQ ID NO: 278			relatively high affinity for activin B	decrease in binding to BMP9	significant decrease in GDF8 and GDF11 binding	significant decrease in GDF8 and GDF11 binding						
